From patent US20080181899A1 (Regeneron, published 2008)

T1: mmDII4-mFc (M. mulatta, UniProt Q9NR61 27-524 (human entry))
T1 construct: also called mmDII4 dimer; not shown: mouse Fc
T1 chain: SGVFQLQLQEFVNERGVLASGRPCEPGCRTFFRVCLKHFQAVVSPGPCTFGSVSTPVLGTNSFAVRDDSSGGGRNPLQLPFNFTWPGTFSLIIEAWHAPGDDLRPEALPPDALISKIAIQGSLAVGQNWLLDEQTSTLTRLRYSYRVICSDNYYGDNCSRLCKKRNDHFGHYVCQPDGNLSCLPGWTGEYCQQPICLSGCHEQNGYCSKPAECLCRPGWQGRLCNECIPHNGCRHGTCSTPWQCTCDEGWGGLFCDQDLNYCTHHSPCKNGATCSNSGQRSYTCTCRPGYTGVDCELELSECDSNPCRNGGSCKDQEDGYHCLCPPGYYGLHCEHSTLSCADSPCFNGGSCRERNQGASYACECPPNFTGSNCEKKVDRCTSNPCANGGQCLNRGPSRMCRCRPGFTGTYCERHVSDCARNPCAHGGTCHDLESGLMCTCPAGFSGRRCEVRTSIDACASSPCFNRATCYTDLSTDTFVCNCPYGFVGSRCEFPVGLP

T2: M. facscicularis DII4 monomer (M. facscicularis, UniProt Q9NR61 27-524 (human entry))
T2 construct: also called mfDII4
T2 chain: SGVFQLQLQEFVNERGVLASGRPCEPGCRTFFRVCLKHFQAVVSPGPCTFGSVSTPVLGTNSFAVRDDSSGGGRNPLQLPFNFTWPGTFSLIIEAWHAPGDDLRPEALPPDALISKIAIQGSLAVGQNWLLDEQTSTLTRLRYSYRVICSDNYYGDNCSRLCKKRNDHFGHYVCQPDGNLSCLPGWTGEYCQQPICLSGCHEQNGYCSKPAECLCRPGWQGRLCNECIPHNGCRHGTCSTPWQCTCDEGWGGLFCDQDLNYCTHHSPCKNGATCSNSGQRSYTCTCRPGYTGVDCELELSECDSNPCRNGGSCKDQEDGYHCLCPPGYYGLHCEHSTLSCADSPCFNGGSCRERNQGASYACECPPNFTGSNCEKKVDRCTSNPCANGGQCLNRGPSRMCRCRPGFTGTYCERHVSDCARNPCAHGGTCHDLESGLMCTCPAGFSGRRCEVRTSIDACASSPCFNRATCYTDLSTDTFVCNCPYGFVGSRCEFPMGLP

T3: M. mulatta DII4 monomer (M. mulatta, UniProt Q9NR61 27-524 (human entry))
T3 construct: also called mmDII4
T3 chain: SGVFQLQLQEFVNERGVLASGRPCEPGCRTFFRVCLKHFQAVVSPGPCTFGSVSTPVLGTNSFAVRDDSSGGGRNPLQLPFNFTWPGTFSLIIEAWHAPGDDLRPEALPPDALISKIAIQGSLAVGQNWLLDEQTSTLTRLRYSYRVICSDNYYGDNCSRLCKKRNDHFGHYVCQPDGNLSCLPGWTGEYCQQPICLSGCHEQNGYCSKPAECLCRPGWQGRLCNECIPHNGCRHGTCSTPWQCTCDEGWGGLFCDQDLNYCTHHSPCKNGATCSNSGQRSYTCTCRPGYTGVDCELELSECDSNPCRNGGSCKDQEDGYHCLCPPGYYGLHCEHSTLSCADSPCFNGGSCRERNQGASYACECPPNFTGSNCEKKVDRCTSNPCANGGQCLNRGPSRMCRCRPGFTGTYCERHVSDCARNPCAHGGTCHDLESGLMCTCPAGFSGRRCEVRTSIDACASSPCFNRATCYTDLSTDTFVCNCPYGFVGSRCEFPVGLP


Key:
mmDII4-mFc = target: T1, mmDII4-mFc; test: SPR BIACORE; antibody captured by anti-hFc; dimer analyte
hDII4-mFc = target: T4, hDII4-mFc (human, UniProt Q9NR61 27-524); test: as above
T4 construct: also called dimeric DII4-mFc; not shown: mouse Fc

[1] = target: T5, monomeric hDII4 (human delta-like ligand 4) (human, UniProt Q9NR61 27-524); test: SPR BIACORE; antibody captured by anti-hFc; monomer analyte
T5 construct: also called monomeric DII4 protein
Experimental: (§1) The binding affinities of selected purified antibodies to hDII4, M. facscicularis DII4 (mfDII4, SEQ IN NO:956), and M. mulatta DII4 (mmDII4, SEQ ID NO:957) monomers were determined using a BIACORE™ 2000 & 3000.

[2] = target: T2, M. facscicularis DII4 monomer; test: as above
Experimental: as §1

M. mulatta DII4 monomer = target: T3, M. mulatta DII4 monomer; test: as above
Experimental: as §1

mDII4-mFc = target: T6, mDII4-mFc (mouse, UniProt Q9JI71 28-525); test: SPR BIACORE; DII4 protein captured by anti-mouse IgG; antibody injected
T6 construct: also called mouse DII4-mFc; not shown: mouse Fc
Experimental: (§2) Briefly, each of the DII4 proteins was captured (240-470 RU) on goat anti-mouse IgG antibody surfaces, followed by injection of test antibody at a concentration of 100 μg/ml (Table 11).

[3] = target: T7, chimeric DII4 protein #6 (human DSL domain, V173-Q218, in mouse DII4) fused to mouse IgG2a-Fc (mouse; human, UniProt Q9JI71 28-173; Q9JI71 220-525); test: SPR BIACORE; DII4 protein captured by anti-mouse IgG; antibody at 100 µg/ml
T7 construct: not shown: mouse IgG2a-Fc fragment
Experimental: as §2

[4] = target: T8, chimeric DII4 protein #1 (human N-terminal and DSL domains, S27-Q218, in mouse DII4) fused to mouse IgG2a-Fc (human; mouse, UniProt Q9JI71 220-525); test: as above
T8 construct: Used as CHO-K1 conditioned medium; not shown: mouse IgG2a-Fc fragment
Experimental: as §2

[5] = target: T9, chimeric DII4 protein #3 (human N-terminal, DSL, EGF-1 and EGF-2 domains, S27-Q283, in mouse DII4) fused to … (human; mouse, UniProt Q9JI71 285-525); test: as above
T9 construct: not shown: mouse IgG2a-Fc fragment
Experimental: as §2

[6] = target: T10, chimeric DII4 protein #5 (human N-terminal domain, S27-R172, in mouse DII4) fused to mouse IgG2a-Fc (human; mouse, UniProt Q9JI71 174-525); test: as above
T10 construct: not shown: mouse IgG2a-Fc fragment
Experimental: as §2

dimeric hDII4-hFc = target: T11, dimeric hDII4-hFc (human, UniProt Q9NR61 27-524, biotin in Example 3 (biotin-DII4-hFc), site not stated); test: competition ELISA; antibody titrated against 30 pM biotin-DII4-hFc (1 hr); free biotin-DII4-hFc on Notch-hFc plate
T11 construct: also called DII4-Fc; biotin-DII4-hFc; not shown: human Fc
Experimental: The ability of the antibodies to block DII4 binding to Notch was evaluated with an ELISA-based immunoassay. Briefly, Notch-hFc recombinant protein was coated on a 96-well plate in PBS buffer overnight at 4° C. at […], and the nonspecific binding sites were blocked with BSA.

| Kd (mmDII4-mFc) [nM] | koff (mmDII4-mFc) [s⁻¹] | kon (mmDII4-mFc) [M⁻¹ s⁻¹] | Kd (hDII4-mFc) [nM] | koff (hDII4-mFc) [s⁻¹] | kon (hDII4-mFc) [M⁻¹ s⁻¹] | Kd [1] [nM] | koff [1] [s⁻¹] | kon [1] [M⁻¹ s⁻¹] | Kd [2] [nM] | koff [2] [s⁻¹] | kon [2] [M⁻¹ s⁻¹] | Kd (M. mulatta DII4 monomer) [nM] | koff (M. mulatta DII4 monomer) [s⁻¹] | kon (M. mulatta DII4 monomer) [M⁻¹ s⁻¹] | binding result (mDII4-mFc) | binding result [3] | binding result [4] | binding result [5] | binding result [6] | Binder | other results |
| --- | --- | --- | --- | --- | --- | --- | --- | --- | --- | --- | --- | --- | --- | --- | --- | --- | --- | --- | --- | --- | --- |
| 0.0147 | 4.64e-06 | 316000 | 0.0163 | 4.96e-06 | 302000 | 0.148 | 2.3e-05 | 156000 | 0.307 | 2.04e-05 | 66400 | 0.329 | 3.05e-05 | 92700 | no binding (tested: 100 µg/ml) | binds | binds | binds | binds | 318518-01A10-D8 (antibody, human IgG1, HCVR 429 with hIgG1 constant region 950; also called REGN281; 318518-1A10-D8) heavy: not shown VL: EIVMTQSPATLSLSPGERATLSCRASQSVSSYLAWYQQKPGQAPRLLIYDASNRATGIPARFSGSGSGTDFTLTISSLEPEDFAVYYCQHRSNWPPTFGGGTKVEIK | IC50 (dimeric hDII4-hFc): 0.042 nM |
| 0.0098 | 4.15e-06 | 423000 | 0.0133 | 4.6e-06 | 346000 | 0.144 | 2.36e-05 | 164000 | 0.36 | 2.88e-05 | 80100 | 0.375 | 3.41e-05 | 92700 | no binding (tested: 100 µg/ml) | binds | binds | binds | binds | REGN422 (antibody, human IgG4 S228P, HCVR 901 with modified hIgG4 constant region 952) heavy: not shown VL: EIVLTQSPATLSLSPGERATLSCRASQSVSSYLAWYQQKPGQAPRLLIYDASNRATGIPARFSGSGSGTDFTLTISSLEPEDFAVYYCQHRSNWPPTFGGGTKVEIK | IC50 (dimeric hDII4-hFc): 0.039 nM |
| 0.013 | 3.8e-06 | 335000 | 0.0137 | 4.7e-06 | 343000 | 0.133 | 2.17e-05 | 163000 | 0.278 | 2.02e-05 | 72800 | 0.333 | 3.23e-05 | 97000 | no binding (tested: 100 µg/ml) | binds | binds | binds | binds | REGN421 (antibody, human IgG1, HCVR 901 with hIgG1 constant region 950) heavy: not shown VL: EIVLTQSPATLSLSPGERATLSCRASQSVSSYLAWYQQKPGQAPRLLIYDASNRATGIPARFSGSGSGTDFTLTISSLEPEDFAVYYCQHRSNWPPTFGGGTKVEIK | IC50 (dimeric hDII4-hFc): 0.045 nM |
